In assay [1] the target is T1, Recombinant PEDV S protein, strain PEDV-JSXH-2021, 3 × FLAG (pFastBac1-PEDV-S, rBV-PEDV-S) (Porcine epidemic diarrhea virus, …, UniProt Q91AV1, strain).
T1 construct: Spike (S) protein of porcine epidemic diarrhea virus strain PEDV-JSXH-2021; band of approximately 180 kDa on the blot; the plasmid was synthesised; also called PEDV S protein expressed in Sf9 cells; source: Sf9 cells infected with recombinant baculovirus rBV-PEDV-S; in fixed cells and in supernatant of sonicated cells; not shown: 3xFLAG, C-terminal, kept
The assay can be described thus: immunostaining of cells or tissue; IFA on Sf9 cells infected with rBV-PEDV-S (MOI 0.1, 48 h), fixed with 4% paraformaldehyde; diluted refolded VHH as primary antibody, mouse anti-His tag, then Alexa Fluor 488 goat anti-mouse IgG; uninfected Sf9 cells as mock. Conditions: one partner purified.

The target in assay [2] is T2, PEDV S protein of strain PEDV-JSXH-2021 in infected Vero E6 cells (Porcine epidemic diarrhea virus, …, UniProt Q91AV1, strain).
T2 construct: Spike (S) protein of porcine epidemic diarrhea virus strain PEDV-JSXH-2021, made by the virus itself; The experiment stains infected cells; also called PEDV-JSXH-2021 strain; source: Vero E6 cells infected with PEDV-JSXH-2021 (MOI 0.01, 48 h), fixed; virus suspension in the neutralisation assay
Kind of assay: immunostaining of cells or tissue; IFA on Vero E6 cells infected with PEDV-JSXH-2021 (MOI 0.01, 48 h), fixed with 4% paraformaldehyde; purified VHH as primary antibody overnight at 4 °C, mouse anti-His tag, then Alexa Fluor 555 goat anti-mouse IgG; uninfected cells as mock. To be noted: one partner purified.

The target of assay [3] is T3, PEDV spike (S) protein, strain PEDV-JSXH-2021, bait pGBKT7-PEDV-S (Porcine epidemic diarrhea virus, …, UniProt Q91AV1, strain).
T3 construct: Spike (S) protein of porcine epidemic diarrhea virus strain PEDV-JSXH-2021 (G1b type); source: yeast two-hybrid fusion (AH109)
Kind of assay: two-hybrid; yeast AH109; bait in pGBKT7, prey in pGADT7; growth on SD-TL, SD-TLH, SD-TLHA and blue colour on SD-TLHA + X-α-gal, 30 °C, 3–4 days; positive clones verified again after the library screen. To be noted: partners not purified.

The target of assay [4] is T2, PEDV S protein of strain PEDV-JSXH-2021 …. Kind of assay: cell-based or functional assay.

B1: VHH1–15 (recombinant, pcDNA3.1-VHH, 6 × His) (VHH)
VHH: QVQLQESGGGLVQAGGSLRLSCAASGYISDAYYMGWYRQAPGKEREFVATITHGTNTYYADSVKGRFTISRDNAKNTVYLQMNSLKPEDTAVYYCAVLETRSYSFRYWGQGTQVTVSS
notes: same VHH as m2; also called PEDV S-VHH; not shown: His6, C-terminal, kept
Turning to B1, the binding result in assay [1] and in assay [2] was “binds” throughout.

B2: VHH1–15 (pGADT7-VHH library clone) (VHH)
VHH: B1 VHH
notes: clone from a synthetic nanobody yeast library; also called PEDV S-VHH; source: yeast two-hybrid fusion (AH109)
Consider B2, for which the binding result in assay [3] was “binds”.

B3: VHH2–28 (recombinant, pcDNA3.1-VHH, 6 × His) (VHH)
VHH: QVQLQESGGGLVQAGGSLRLSCAASGSISLHPQMGWYRQAPGKERELVAGIATGGNTNYADSVKGRFTISRDNAKNTVYLQMNSLKPEDTAVYYCAVNEYHPRAMYALYIYWGQGTQVTVSS
In the case of B3, the “concentration of VHH that completely neutralises infection of Vero E6 cells by PEDV-JSXH-2021 (serial dilutions from 200 ng/µL, read by IFA after 5 to 7 days)” value (“concentration” below) in assay [4] turned out to be 50 ng/µL.

B4: VHH1–89 (recombinant, pcDNA3.1-VHH, 6 × His) (VHH)
VHH: QVQLQESGGGLVQAGGSLRLSCAASGYISDAYYMGWYRQAPGKEREFVATITHGTNTYYADSVKGRFTISRDNAKNTVYLQMNSLKPEDTAVYYCAVFLARIASFLPILLISLRYWGQGTQVTVSS
With B4, in assay [4], the “concentration” value turned out to be 12.5 ng/µL.

B5: VHH1–4 (recombinant, pcDNA3.1-VHH, 6 × His) (VHH)
VHH: QVQLQESGGGLVQAGGSLRLSCAASGTIFCYGGMGWYRQAPGKERELVAGITMGTSTNYADSVKGRFTISRDNAKNTVYLQMNSLKPEDTAVYYCAAAVMVAGPYQSWHGYWGQGTQVTVSS
Regarding B5, in assay [4], the “concentration” value was found to be 100 ng/µL.

B6: VHH2–50 (recombinant, pcDNA3.1-VHH, 6 × His) (VHH)
VHH: QVQLQESGGGLVQAGGSLRLSCAASGYISDAYYMGWYRQAPGKEREFVATITHGTNTYYADSVKGRFTISRDNAKNTVYLQMNSLKPEDTAVYYCAALFSIIVYYFSNSNLVFNYWGQGTQVTVSS
For B6, in assay [4], the “concentration” value was determined as 25 ng/µL.

B7: VHH2–77 (recombinant, pcDNA3.1-VHH, 6 × His) (VHH)
VHH: QVQLQESGGGLVQAGGSLRLSCAASGYISDAYYMGWYRQAPGKEREFVATITHGTNTYYADSVKGRFTISRDNAKNTVYLQMNSLKPEDTAVYYCAVFSTISVNIYTFLYVIFFYWGQGTQVTVSS
As to B7, the “concentration” value in assay [4] was found to be 12.5 ng/µL.

B8: VHH2–18 (recombinant, pcDNA3.1-VHH, 6 × His) (VHH)
VHH: QVQLQESGGGLVQAGGSLRLSCAASGYISDAYYMGWYRQAPGKEREFVATITHGTNTYYADSVKGRFTISRDNAKNTVYLQMNSLKPEDTAVYYCAASSLRKVLMTQLPTRLYYYWGQGTQVTVSS
Regarding B8, the “concentration” value in assay [4] came to 50 ng/µL.

B9: VHH1–41 (recombinant, pcDNA3.1-VHH, 6 × His) (VHH)
VHH: QVQLQESGGGLVQAGGSLRLSCAASGSIFTFVRMGWYRQAPGKERELVAGIAIGSITYYADSVKGRFTISRDNAKNTVYLQMNSLKPEDTAVYYCAAQSVQKAETTSPFAYWGQGTQVTVSS
Take B9: the “concentration” value in assay [4] was 25 ng/µL.

The record behind these values is publication PMC11598873, “Neutralizing VHH Antibodies Targeting the Spike Protein of PEDV” (Veterinary Sciences, 2024).
